Here are results for one molecule from publication PMC2893164, “Structural Basis of Gate-DNA Breakage and Resealing by Type II Topoisomerases”.

The target in this data set is ParC55 (topoisomerase IV ParC breakage-reunion domain);ParE30 (topoisomerase IV ParE TOPRIM domain) (Streptococcus pneumoniae;Streptococcus …, UniProt P72525;Q59961 1-488;404-647, |). Nature of the data set: X-ray crystallography (3.1 A); PD 0305970 (two intercalated), Mg2+; cleaved DNA, covalent Tyr118; Complex: 20 mM Tris-HCl pH 7.0, 200 then 75 mM NaCl, 10% glycerol, 1 mM b-mercaptoethanol, 20 mM MgCl2, 0.05% NaN3, PD 0305970, room temperature; crystals: 50 mM Na cacodylate pH 6.5, 2.5% Tacsimate pH 7.0, 62.5 mM KCl, 7.5 mM MgCl2, 4-6% isopropanol; data at 100 K. The note with it: protein: recombinant;recombinant; tags: C-terminal His tag;N-terminal His tag; chain copies: 2;2; blunt.
ParC55 (topoisomerase IV ParC breakage-reunion domain);ParE30 (topoisomerase IV ParE TOPRIM domain), sequence (P72525 1-488, chain 1 of 2): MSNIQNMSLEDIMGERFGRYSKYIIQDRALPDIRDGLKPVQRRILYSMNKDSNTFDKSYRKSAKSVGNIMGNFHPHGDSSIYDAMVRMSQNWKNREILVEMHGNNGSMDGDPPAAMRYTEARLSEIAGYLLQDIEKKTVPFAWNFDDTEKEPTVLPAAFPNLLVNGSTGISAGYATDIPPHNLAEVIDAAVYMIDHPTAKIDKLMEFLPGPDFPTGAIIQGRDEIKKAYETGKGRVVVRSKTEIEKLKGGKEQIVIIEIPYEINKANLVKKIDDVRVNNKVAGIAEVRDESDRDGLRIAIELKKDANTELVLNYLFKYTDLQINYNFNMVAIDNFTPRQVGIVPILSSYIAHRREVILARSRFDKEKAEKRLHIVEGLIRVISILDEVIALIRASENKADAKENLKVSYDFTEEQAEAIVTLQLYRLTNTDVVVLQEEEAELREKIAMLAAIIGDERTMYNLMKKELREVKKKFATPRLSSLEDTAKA
ParC55 (topoisomerase IV ParC breakage-reunion domain);ParE30 (topoisomerase IV ParE TOPRIM domain), sequence (Q59961 404-647, chain 2 of 2): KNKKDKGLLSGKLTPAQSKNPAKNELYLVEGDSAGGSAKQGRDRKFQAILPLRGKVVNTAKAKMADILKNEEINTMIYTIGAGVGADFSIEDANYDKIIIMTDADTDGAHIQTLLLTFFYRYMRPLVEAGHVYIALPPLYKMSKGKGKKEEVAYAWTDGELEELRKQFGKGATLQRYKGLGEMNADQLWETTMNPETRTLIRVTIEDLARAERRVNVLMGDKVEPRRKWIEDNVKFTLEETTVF

B1: 34-bp E-site G-segment DNA (dsDNA)
DNA 1: ACCAAGGTCATGAATGACTATGCACGTAAAACAG
DNA 2: CTGTTTTACGTGCATAGTCATTCATGACCTTGGT
modifications: none (cleaved with 4-bp stagger in the complex, or resealed, by row)
As for B1, the binding result is on record as “binds”.
